Assays:
[1] = target: HBV recombinant antigen GST-pre-S1(1-56) (hepatitis B virus); assay: competitive ELISA, pre-S1 antigen in solution and on plate
[2] = target: HBV recombinant antigen GST-pre-S1(1-56) (hepatitis B virus); assay: competitive ELISA, GST-pre-S1(1-56) on plate, COS7 supernatant
[3] = target: HBV recombinant antigen GST-pre-S1(1-56) (hepatitis B virus); assay: competitive ELISA as in Test Example 2, purified antibody from CHO cells
[4] = target: HBV recombinant antigen GST-pre-S1(1-56) (hepatitis B virus); assay: competitive ELISA as in Test Example 2

B1: chimeric antibody chKR127 (wild type) (antibody, V domains shown)
VH: QVQLVQSGAEVKAPGASVKVSCKASGYTFTSAWMNWVRQAPGQGLEWMGRIYPSGGSTSYAQKFQGRVTMTADKSTSTVYMELSSLRSEDTAVYYCAREYRVARWGQGTLVTVSA
VL: DIVMTQTPLSLSVTPGQPASISCKSSQSLLYSNGKTYLNWLLQKPGQPPQRLIYLVSNRDSGVPDRFSGSGSGTDFTLKISRVEAEDVGVYYCVQGTHFPQTFGGGTKVEIK
[1]
  Kd: 8.2 nM
[2]
  Kd: 11 nM

B2: humanized antibody HuKR127 (antibody, V domains shown)
VH: B1 VH
VL: B1 VL
[3]
  Kd: 0.16 nM
  fold higher affinity than the control group: 50 fold

B3: humanized antibody of humanized heavy chain HuKR127HC (HuKR127VH-VII) and humanized antibody HZKR127I light chain (antibody, part only; not given: Light chain, V domains shown, part only)
VH: B1 VH
[4]
  Kd: 0.15 nM
  fold higher affinity than HZKR127I: 50 fold
